From the DeepSol protein solubility set

Assay: soluble on expression in E. coli; label from the status in PepcDB or PDB records

Row | Sequence | soluble on expression in E. coli
1 | MGHHHHHHGGHMSLAQNDHETVDMLLVGAGIMSATLAVLLKELDPNLKMEVVELQESGAIESSNPWNNAGTGHAGLCELNYTPQSADGSIDIKKAVGINTMFEVSKQLWSHLVAKGTFGSPKTFINPVPHLSFVRGSEGIAYLKKRFESLTKHHAFETMVYSEDKATLAEWMPLMMPGRPADEAIAATRVEGGTDVNFGALTNQLLQHLAQQPGAQIRYNQKVTHLRRADNGWRVTVKDTRNGGDREIQARFVFLGAGGGALPLLQLSGIPEGKGFGGFPVSGQWLRCDNPEIVKQHQAKVYSQAEVGSPPMSVPHLDTRVVDGKKSLLFGPYAGFSTKFLRHGSFLDLPLSVRPGNILPMLSVARDNMDLTRYLIGQVMQSPEQRLEALRKFYPEARAEDWRLEVAGQRVQIIKKDPKKGGILQFGTELVAAHDGSIAALLGASPGASVTVSIMLGLIERCFPEQARSPEWSAKLKEIFPAREKELESDAELYRSVSSRCSEVLELTAKNDVQAEGGS | soluble
2 | MGHHHHHHGGHMSLVRITWCPGCGNFAILKAFERASRRVIEEGFDIAVSSGIGCHGKISDYLSLPGFHVIHGRVPPFLTGLKLANPNLVVVGFSGDGDGLNEGVEHLVHAARRNTDITIILHNNGVFGLTTGQVTATSPRGRKSRSTPRGNPEYPLNPCHLMLVSGATFVARVFAGEQERLSEVFYNAMKHKGFSFVEVMQPCVSFNNFWEMRKEIYWIERSSDLLEAMKNCSDAKACGIFYAEEKETYEDAVWKSTFEGGS | soluble
3 | MGHHHHHHGSLVPRGSRAYSFKVVLLGEGCVGKTSLVLRYCENKFNDKHITTLQASFLTKKLNIGGKRVNLAIWDTAGQERFHALGPIYYRDSNGAILVYDITDEDSFQKVKNWVKELRKMLGNEICLCIVGNKIDLEKERHVSIQEAESYAESVGAKHYHTSAKQNKGIEELFLDLCKRMIET | soluble
4 | MGHHHHHHHHHHSSGHIDDDDKHMYTKIIGTGSYLPEQVRTNADLEKMVDTSDEWIVTRTGIRERHIAAPNETVSTMGFEAATRAIEMAGIEKDQIGLIVVATTSATHAFPSAACQIQSMLGIKGCPAFDVAAACAGFTYALSVADQYVKSGAVKYALVVGSDVLARTCDPTDRGTIIIFGDGAGAAVLAASEEPGIISTHLHADGSYGELLTLPNADRVNPENSIHLTMAGNEVFKVAVTELAHIVDETLAANNLDRSQLDWLVPHQANLRIISATAKKLGMSMDNVVVTLDRHGNTSAASVPCALDEAVRDGRIKPGQLVLLEAFGGGFTWGSALVRF | soluble
5 | MGHHHHHHHHHHSSGHIEGRHMAAVTLHLRAETKPLEARAALTPTTVKKLIAKGFKIYVEDSPQSTFNINEYRQAGAIIVPAGSWKTAPRDRIIIGLKEMPETDTFPLVHEHIQFAHCYKDQAGWQNVLMRFIKGHGTLYDLEFLENDQGRRVAAFGFYAGFAGAALGVRDWAFKQTHSDDEDLPAVSPYPNEKALVKDVTKDYKEALATGARKPTVLIIGALGRCGSGAIDLLHKVGIPDANILKWDIKETSRGGPFDEIPQADIFINCIYLSKPIAPFTNMEKLNNPNRRLRTVVDVSADTTNPHNPIPIYTVATVFNKPTVLVPTTAGPKLSVISIDHLPSLLPREASEFFSHDLLPSLELLPQRKTAPVWVRAKKLFDRHCARVKRSSRL | soluble
6 | MGHHHHHHMAGVSEYELPEDPRWELPRDRLVLGKPLGEGAFGQVVLAEAIGLDKDKPNRVTKVAVKMLKSDATEKDLSDLISEMEMMKMIGKHKNIINLLGACTQDGPLYVIVEYASKGNLREYLQARRPPGLEFSFNPSHNPEEQLSSKDLVSCAYQVARGMEYLASKKCIHRDLAARNVLVTEDNVMKIADFGLARDIHHIDYYKKTTNGRLPVKWMAPEALFDRIYTHQSDVWSFGVLLWEIFTLGGSPYPGVPVEELFKLLKEGHRMDKPSNCTNELYMMMRDCWHAVPSQRPTFKQLVEDLDRIVALTSNQEYLDLSMPLD | soluble
7 | MGHHHHHHSHCPQESVYCENKCGARMMRRLLAQHATSECPKRTQPCTYCTKEFVFDTIQSHQYQCPRLPVACPNQCGVGTVAREDLPGHLKDSCNTALVLCPFKDSGCKHRCPKLAMARHVEESVKP | not soluble
8 | MGHHHHHHSHCSSCSTPLYDQGGPVEILPFLYLGSAYHASRKDMLDALGITALINVSANCPNHFEGHYQYKSIPVEDNHKADISSWFNEAIDFIDSIKNAGGRVFVHCQAGISRSATICLAYLMRTNRVKLDEAFEFVKQRRSIISPNFSFMGQLLQFESQVLAPHCSAEAGSPAMAVLDRGTSTTTVFNFPVSIPVHSTNSALSYLQSPITTSPSC | not soluble
9 | MGHHHHHHSHDFEFIRRVEASEESLDVVFAGRLIKEKGADLLIKAMKLLPDYSCLIVGEGPEKASLIKSAPENVKFAGFMNYGYLIATLKSAKVFVLPSRREGFGIAALEANACGLPVVTINHPMNAVVEIARETGFIASPSPQDIAEKIKIAMESRKKMRRRCVDYARKF | not soluble
10 | MGHHHHHHSHDQLDRAGVAAVALSGGEPTIHPHFLRIVKELSSRGIHTSVATNGWTFADKEKLEEAVKAGLKYVEISVDSAKPEKHDEFRGIPGAWERAIKALENAVEIGVSHGMAVIMDKETYQEMDDILDLAESIGVKRVIFFNLVPTGRAEDMVKVDLTPEEREEFLKELYHQMKKRKLEILTTAPQYARVTLIESQGKNVSPAHFYVGQNTAVKTLAEFIGGCGAGRIYAGIEPDGTVVPCVFL | not soluble
11 | MGHHHHHHSHIAMRRDRGPKPALGGAGEVEPGGMAASPTGRPRRLQRYLQSGEFDQFRDFPIFESNFVQVTRLGEVANEVTMGVAASSPALELPDLLLLAGPAKENGHLQLFGLFPLKFVQLFVHDKSRCQLEVKLNTSRTFYLQLRAPLKTRDREFGQWVRLLYRLRFLSASAVPFTQE | not soluble
12 | MGHHHHHHSHIEETTMTTQTPAPIQAPSAILPLPGQSVERLCVDPRHRQGPVNLLSDPEQGVEVTGQYEREKAGFSWIEVTFKNPLVWVHASPEHVVVTRNRRSSAYKWKETLFSVMPGLKMTMDKTGLLLLSDPDKVTIGLLFWDGRGEGLRLLLRDTDRFSSHVGGTLGQFYQEVLWGSPAASD | not soluble
13 | MGHHHHHHSHIELVCWYMVDRDSIDDEPVDIAFIEGSVSTEEEVELVKKIRENSKIVVAVGACAVQGGVQSWTDKSLEELWRTVYGDAKVKFKPKKAEPVSKYIKVDYNIYGCPPEKRDFLYALGTFL | not soluble
14 | MGHHHHHHSHKKHNQGKEAAQRVLSQIDVAQKKLQDVSMKFRLFQKPANFEQRLQESKMILDEVKMHLPALETKSVEQEVVQSQLNHCVNLYKSLSEVKSEVEMVIKTGRQIVQKKQTENPKELDERVTALKLHYNELGAKVTERKQQLEKCLKLSRKMRKEMNVLTEWLAATDMELTKRSAVEGMPSNLDSEVAWGKATQKEIEKQKVHLKSITEVGEALKTVLGKKETLVEDKLSLLNSNWIAVTSRAEEWLNLLLEYQKHMETFDQNVDHITKWIIQADTLLDESEKKK | soluble
15 | MGHHHHHHSHLCTNFFIFTGGPGSGKTAVLNELNTWGYLTVSEVARSIIQKQQADGGDAIHTGNRKAFRDLMLEQSIADYCKMQSEEKIVFFDRGIPDLYGYSKAFCGEASKEVNEAVGRFRYNKTVFIFPPWPEIYENDDERQQDYQEALQTYYAVKEGYFDCGYVLLEVPKCPIKDRANFIFQMISKNG | not soluble
16 | MGHHHHHHSHLKKNEQNFKLAGVKKDIEKLYEAVPQLSNVFKIEDKIGEGTFSSVYLATAQLQVGPEEKIALKHLIPTSHPIRIAAELQCLTVAGGQDNVMGVKYCFRKNDHVVIAMPYLEHESFLDILNSLSFQEVREYMLNLFKALKRIHQFGIVHRDVKPSNFLYNRRLKKYALVDFGLAQGTHDTKIELLKFVQSEAQQERCSQNKSHIITGNKIPLSGPVPKELDQQSTTKASVKRPYTNAQIQIKQGKDGKEGSVGLSVQRSVFGERNFNIHSSISHESPAVKLMKQSKTVDVLSRKLATKKKAISTKVMNSAVMRKTASSCPASLTCDCYATDKVCSICLSRRQQVAPRAGTPGFRAPEVLTKCPNQTTAIDMWSAGVIFLSLLSGRYPFYKASDDLTALAQIMTIRGSRETIQAAKTFGKSILCSKEVPAQDLRKLCERLRGMDSSTPKLTSDIQGHASHQPAISEKTDHKASCLVQTPPGQYSGNSFKKGDSNSCEHCFDEYNTNLEGWNEVPDEAYDLLDKLLDLNPASRITAEEALLHPFFKDMSL | not soluble
17 | MGHHHHHHSHLRHKEPGSGSGGGVYWVDSQQKRYVPVKGDHVIGIVTAKSGDIFKVDVGGSEPASLSYLSFEGATKRNRPNVQAISSRL | not soluble
18 | MGHHHHHHSHMAALASSLIRQKREVREPGGSRPVSAQRRVCPRGTKSLCQKQLLILLSKVRLCGGRPARPDRGPEPQLKGIVTKLFCRQGFYLQANPDGSIQGTPEDTSSFTHFNLIPVGLRVVTIQSAKLGHYMAMNAEGLLYSSPHFTAECRFKECVFENYYVLYASALYRQRRSGRAWYLGLDKEGQVMKGNRVKKTKAAAHFLPKLLEVAMYQEPSLHSVPEASPSSPPAP | soluble
19 | MGHHHHHHSHMADDIDIEAMLEAPYKKDENKLSSANGHEERSKKRKKSKSRSRSHERKRSKSKERKRSRDRERKKSKSRERKRSRSKERRRSRSRSRDRRFRGRYRSPYSGPKFNSAIRGKIGLPHSIKLSRRRSRSKSPFRKDKSPVREPIDNLTPEERDARTVFCMQLAARIRPRDLEEFFSTVGKVRDVRMISDRNSRRSKGIAYVEFVDVSSVPLAIGLTGQRVLGVPIIVQASQAEKNRAAAMANNLQKGSAGPMRLYVGSLHFNITEDMLRGIFEPFGRIESIQLMMDSETGRSKGYGFITFSDSECAKKALEQLNGFELAGRPMKVGHVTERTDASSASSFLDSDELERTGIDLGTTGRLQLMARLAEGTGLQIPPAAQQALQMSGSLAFGAVAEFSFVIDLQTRLSQQTEASALAAAASVQPLATQCFQLSNMFNPQTEEEVGWDTEIKDDVIEECNKHGGVIHIYVDKNSAQGNVYVKCPSIAAAIAAVNALHGRWFAGKMITAAYVPLPTYHNLFPDSMTATQLLVPSRR | soluble
20 | MGHHHHHHSHMAESHPWSGRPSSSPRRSSTFANYAWKHTIKPNRILIRNARPLVINFATDRLPIIKPVDQIILEDAGTVGSALNLPSESICTRPGLLLFGHYNNDVPVTPLVDFKPDEPLQVVLTAHKTIVVPPGEFVMIIVCVNFEKIKSLDLIIHEMSTSNIPLPPTCGQTFKNFNTATPSLEIYGDVIECNDDQKTCVFTAVFPGLHRRCSLHGPLNFMGFVNSVNITGTILRVYYSGVSEAAPDSILVKFKTSSAVAFSKNPCQGHVPSHDDTLIPLVYTGPTLRLLPLETISIPFNTSFVAQNPDLKAIIYDNNLKDIRISATMWTGEQTPILAHNLTAAVKLIHSGTVFARAAFFSTKENKKACTLKLCPSTILLPGGELSLDTSTLPNCFK | not soluble
21 | MGHHHHHHSHMAGPVKDREAFQRLNFLYQAAHCVLAQDPENQALARFYCYTERTIAKRLVLRRDPSVKRTLCRGCSSLLVPGLTCTQRQRRCRGQRWTVQTCLTCQRSQRFLNDPGHLLWGDRPEAQLGSQADSKPLQPLPNTAHSISDRLPEEKMQTQGSSNQ | not soluble
22 | MGHHHHHHSHMAPKKAKKRAGGANSNVFSMFEQTQIQEFKEAFTIMDQNRDGFIDKNDLRDTFAALGRVNVKNEEIDEMIKEAPGPINFTVFLTMFGEKLKGADPEETILNAFKVFDPEGKGVLKADYVREMLTTQAERFSKEEVDQMFAAFPPDVTGNLDYKNLVHIITHGEEKD | soluble
23 | MGHHHHHHSHMASRWQNMGTSVRRRSLQHQEQLEDSKELQPVVSHQETSVGALGSLCRQFQRRLPLRAVNLNLRAGPSWKRLETPEPGQQGLQAAARSAKSALGAVSQRIQESCQSGTKWLVETQVKARRRKRGAQKGSGSPTHSLSQKSTRLSGAAPAHSAADPWEKEHHRLSVRMGSHAHPLRRSRREAAFRSPYSSTEPLCSPSESDSDLEPVGAGIQHLQKLSQELDEAIMAEERKQALSDRQGFILKDVYASP | not soluble
